In PMC4699388 one finds rate of binding to FOG-1 and relative affinity against wild-type GATA-1 (fold less) data, which are given here for one substance.

Assay [1] concerns the target GATA-1^S310A (human) (UniProt P15976). The assay is described as follows: co-IP.
Assay [2] shares this target.

Sequence of UniProt P15976 (P15976 whole entry S310A): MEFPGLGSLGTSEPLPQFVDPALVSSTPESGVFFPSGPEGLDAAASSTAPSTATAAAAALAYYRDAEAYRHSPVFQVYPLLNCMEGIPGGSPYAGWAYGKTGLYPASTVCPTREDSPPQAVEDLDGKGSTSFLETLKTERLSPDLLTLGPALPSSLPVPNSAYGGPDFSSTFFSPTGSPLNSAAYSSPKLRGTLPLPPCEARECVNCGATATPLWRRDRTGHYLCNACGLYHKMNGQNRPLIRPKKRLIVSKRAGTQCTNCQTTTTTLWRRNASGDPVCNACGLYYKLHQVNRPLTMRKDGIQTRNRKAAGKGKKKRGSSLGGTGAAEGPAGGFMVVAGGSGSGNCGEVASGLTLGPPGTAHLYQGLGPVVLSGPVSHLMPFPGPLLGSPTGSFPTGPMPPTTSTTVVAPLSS

With “FOG-1 (mouse), in NIH-3T3 cells (from UniProt O35615 1-995) (natural protein)”, the rate of binding to FOG-1 in the assay with GATA-1^S310A (human) [1] was determined as 62. Moreover, the relative affinity against wild-type GATA-1 (fold less) with GATA-1^S310A (human) [2] was 25 fold.
